From publication PMC4721548, “Conformational heterogeneity of the Roc domains in C. tepidum Roc–COR and implications for human LRRK2 Parkinson mutations” (Bioscience Reports, 2015)

Legend:
[1] = tested on: T1, Nc1nc2c(ncn2[C@@H]2O[C@H](COP(=O)(O)OP(=O)(O)OP(=O)(O)O)[C@@H](O)[C@H]2O)c(=O)[nH]1; experiment: multiple turnover radioactive charcoal GTPase assay, Michaelis-Menten fit; assay type: biochemical, C. tepidum; details: 100 nM protein, 50 mM NaCl, 20 mM Tris/HCl, 10 mM MgCl2, 1 mM DTT, 0.5 mg/ml BSA, pH 7.5, 25°C, labelled compound (gamma-32P)
T1 construct: Roc-COR-kinase fragment, AA 1334-2147, N-terminal His-tag, expressed in Sf9 cells, Ni-NTA purified

[2] = tested on: T1, Nc1nc2c(ncn2[C@@H]2O[C@H](COP(=O)(O)OP(=O)(O)OP(=O)(O)O)[C@@H](O)[C@H]2O)c(=O)[nH]1; experiment: as above; assay type: biochemical, Chlorobaculum tepidum; details: 100 nM protein, 50 mM NaCl, 20 mM Tris/HCl, 10 mM MgCl2, 1 mM DTT, 0.5 mg/ml BSA, pH 7.5, 25°C, labelled compound (gamma-32P)

LRRK2 Roc-COR-kinase fragment (Homo sapiens), sequence (chain, as listed by the source): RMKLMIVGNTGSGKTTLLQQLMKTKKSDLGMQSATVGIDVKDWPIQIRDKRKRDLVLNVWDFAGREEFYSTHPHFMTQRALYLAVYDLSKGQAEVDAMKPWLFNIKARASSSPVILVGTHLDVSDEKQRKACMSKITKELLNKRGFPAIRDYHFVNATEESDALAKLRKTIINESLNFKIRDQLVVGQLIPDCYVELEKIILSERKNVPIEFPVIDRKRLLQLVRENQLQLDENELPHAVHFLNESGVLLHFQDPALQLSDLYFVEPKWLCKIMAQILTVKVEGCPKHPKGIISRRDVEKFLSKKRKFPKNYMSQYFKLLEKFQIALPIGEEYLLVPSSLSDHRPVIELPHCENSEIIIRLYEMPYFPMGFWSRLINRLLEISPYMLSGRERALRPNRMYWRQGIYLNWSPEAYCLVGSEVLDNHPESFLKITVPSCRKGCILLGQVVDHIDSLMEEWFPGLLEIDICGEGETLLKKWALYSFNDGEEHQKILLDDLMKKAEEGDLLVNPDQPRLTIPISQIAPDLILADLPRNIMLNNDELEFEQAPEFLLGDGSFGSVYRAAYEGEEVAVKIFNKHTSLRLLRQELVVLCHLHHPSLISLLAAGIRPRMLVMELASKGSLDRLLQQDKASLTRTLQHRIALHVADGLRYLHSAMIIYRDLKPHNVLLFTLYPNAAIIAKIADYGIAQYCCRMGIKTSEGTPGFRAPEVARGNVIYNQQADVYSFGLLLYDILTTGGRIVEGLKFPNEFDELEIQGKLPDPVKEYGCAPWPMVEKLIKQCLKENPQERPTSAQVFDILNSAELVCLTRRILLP
LRRK2 Roc-COR-kinase fragment (Homo sapiens; R1441C), sequence (chain, as listed by the source R1441C): as the sequence (chain, as listed by the source) above, with R108C counted along it

Substance | Km [1] [µM] | kcat [1] [s⁻¹] | Km [2] [µM] | kcat [2] [s⁻¹]
LRRK2 Roc-COR-kinase fragment (Homo sapiens) | 343 | 0.013 |  | 
LRRK2 Roc-COR-kinase fragment (Homo sapiens; R1441C) |  |  | 541 | 0.00617
